# Patent publication US12258384B2, “Fusion albumin nanoparticle and application thereof” (Jiangnan University, priority 2019, dated 2025)
# Experiments:
# [1] = Loading of paclitaxel with recombinant fusion protein (pH response self-assembly), drug loading rate; format: physicochemical; details: 1 mg/ml protein, mixed at pH 5.5 with 10 mg/mL paclitaxel solution, then pH 7.4
# Method: (§1) Albumin fusion protein powder freeze-dried by a freeze dryer was dissolved in a PBS buffer solution to prepare a 1 mg/ml solution, the pH was adjusted to 5.5 with a 1 mM HCl solution, after a 10 mg/mL paclitaxel solution was added, the pH was adjusted to 7.4 with a 1 mM NaOH solution, centrifugation was performed at 10000 rpm for 20 minutes, an obtained precipitate was uniformly mixed with ultrapure water and then centrifuged at 1000 rpm for 20 minutes, and the steps above were repeated 3 times to obtain a paclitaxel-loaded fusion protein nanoparticle.
# A final drug loading rate was directly affected by a mixing ratio of albumin to a drug (for example, paclitaxel): Fusion albumin powder freeze-dried by a freeze dryer was dissolved in a PBS buffer solution to prepare a 1 mg/ml solution, the pH was adjusted to 5.5 with a 1 mM HCl solution, after a drug solution with a concentration of 5 mg/ml, 8 mg/ml, 12 mg/mL and 15 mg/ml was separately added, the pH was adjusted to 7.4 with a 1 mM NaOH solution, centrifugation was performed at 10000 rpm for 20 minutes, an obtained precipitate was uniformly mixed with ultrapure water and then centrifuged at 1000 rpm for 20 minutes, and the steps above were repeated 3 times to obtain a paclitaxel-loaded fusion protein nanoparticle. […]
# [2] = Loading of docetaxel with recombinant fusion protein, drug loading rate; format: physicochemical; details: 1 mg/mL protein, mixed at pH 5.5 with 10 mg/ml docetaxel solution, then pH 7.4
# Method: as §1, with “mg/mL” for “mg/ml”, “mg/ml docetaxel” for “mg/mL paclitaxel”, “a” for “a paclitaxel-loaded”
substance,measurement,setting,value
"RH: albumin fusion protein 3RGD-HSA, without His fusion",drug loading rate (paclitaxel),[1],6.38%
same,drug loading rate (docetaxel),[2],7.08%
